This is an account of results in paper PMC12745498, “Streptococcus pneumoniae HtrA is a dynamic and monomeric virulence factor capable of forming larger oligomeric complexes” (Protein Science : A Publication of the Protein Society, 2025).

A word on the Kd: it is the constant that tells how readily two partners part at equilibrium. As a reminder, the stoichiometry N is the number of molecules, sites or subunits per partner or assembly.

The labels stand for the following.
T1: S. pneumoniae HtrA protease domain (PD, residues 59-285) (Streptococcus pneumoniae, UniProt A0A0H2ZQD7 59-285)
T1 construct: HtrA serine protease of Streptococcus pneumoniae, protease domain alone, residues 59-285; 15N-labeled where it is the observed partner of an NMR titration; also called HtrA PD; PD WT; source: E. coli BL21(DE3), purified (Ni column, preparative sizing column)
T1 sequence: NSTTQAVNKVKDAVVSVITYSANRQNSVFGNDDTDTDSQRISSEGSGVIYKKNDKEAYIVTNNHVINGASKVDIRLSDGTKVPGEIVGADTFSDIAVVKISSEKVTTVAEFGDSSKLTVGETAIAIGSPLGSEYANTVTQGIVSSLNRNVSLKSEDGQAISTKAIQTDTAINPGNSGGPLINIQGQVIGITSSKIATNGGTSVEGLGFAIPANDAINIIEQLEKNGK

B1: β-casein residues 21-70 (domain or fragment, bovine, UniProt P02666 21-70, looked up)
chain: LNVPGEIVESLSSSEESITRINKKIEKFQSEEQQQTEDELQDKIHPFAQT
modifications: ends and bridges not checked
notes: bovine β-casein, residues 21-70; also called N-terminal segment (21-70); source: recombinantly produced in-house with the hSUMO1 system (as for the HtrA PDZ)
B2: S. pneumoniae HtrA S234A full ectodomain (residues 59-393) (enzyme)
chain: NSTTQAVNKVKDAVVSVITYSANRQNSVFGNDDTDTDSQRISSEGSGVIYKKNDKEAYIVTNNHVINGASKVDIRLSDGTKVPGEIVGADTFSDIAVVKISSEKVTTVAEFGDSSKLTVGETAIAIGSPLGSEYANTVTQGIVSSLNRNVSLKSEDGQAISTKAIQTDTAINPGNAGGPLINIQGQVIGITSSKIATNGGTSVEGLGFAIPANDAINIIEQLEKNGKVTRPALGIQMVNLSNVSTSDIRRLNIPSNVTSGVIVRSVQSNMPANGHLEKYDVITKVDDKEIASSTDLQSALYNHSIGDTIKITYYRNGKEETTSIKLNKSSGDLES
notes: HtrA serine protease of Streptococcus pneumoniae, full ectodomain, residues 59-393, catalytic serine changed to alanine; the mutant's own cloning is not described; also called full HtrA S234A ectodomain; catalytic mutant; source: E. coli, purified (monomer and hexamer separated by size-exclusion chromatography)
B3: S. pneumoniae HtrA PDZ domain (residues 285-393) (domain or fragment, Streptococcus pneumoniae, UniProt A0A0H2ZQD7 285-393, looked up)
chain: KVTRPALGIQMVNLSNVSTSDIRRLNIPSNVTSGVIVRSVQSNMPANGHLEKYDVITKVDDKEIASSTDLQSALYNHSIGDTIKITYYRNGKEETTSIKLNKSSGDLES
notes: HtrA serine protease of Streptococcus pneumoniae, PDZ domain alone, residues 285-393 (the methods print 285-493); cloned downstream of human SUMO1 to give the PDZ with no overhang; source: E. coli BL21(DE3), purified (Ni column, ULP1 cleavage, Ni column, preparative sizing column); not shown: 6xHis, N-terminal, cleaved; hSUMO1, N-terminal, cleaved

Ends that are not written are not given here.

In data set [1] the target is B3. Put plainly: NMR titration; 250 μM 15N-labeled HtrA PDZ titrated with recombinant β-casein fragments (final 400 μM); 15N-HSQC, global fit of CSPs. The settings on record: both partners purified.
Data set [2] deals with the molecule itself. Put plainly: SEC; size-exclusion chromatography of HtrA WT, HtrA S234A, β-casein and a mixture of HtrA S234A with excess β-casein.
Data set [3] deals with T1, S. pneumoniae HtrA protease domain (PD, …). Put plainly: NMR titration; 500 μM 15N-labeled PDZ titrated with unlabeled PD (0.5-4 mM); 15N-HSQC at 900 MHz, 35°C; 50 mM sodium phosphate pH 6, 50 mM NaCl; global fit of CSPs, single-site model. The settings on record: both partners purified.
Data set [4] shares this target. Put plainly: NMR titration; 500 μM 15N-labeled PD titrated with unlabeled PDZ (0.25-4 mM); 15N-HSQC at 900 MHz, 35°C; 50 mM sodium phosphate pH 6, 50 mM NaCl; global fit of CSPs, single-site model. The settings on record: both partners purified.

For the molecule B1, the dissociation constant (Kd) in data set [1] amounted to 215 ± 35 µM.
Take B2: the “stoichiometry N” value in data set [2] was 6.
For B3, the values for the Kd in data set [3] and in data set [4] were 1000 ± 500 µM and 480 ± 43 µM, respectively.
